B1: Azoarcus group I ribozyme (parent)
chain: GUGCCUUGCGCCGGGAAACCACGCAAGGGAUGGUGUCAAAUUCGGCGAAACCUAAGCGCCCGCCCGGGCGUAUGGCAACGCCGAGCCAAGCUUCGGCGCCUGCGCCGAUGAAGGUGUAGAGACUAGACGGCACCCACCUAAGGCAAACGCUAUGGUGAAGGCAUAGUCCAGGGAGUGGCGAAAGUCACACAAACCGG

Variants of: B1
Assay: reverse-splicing fitness (ratio to wild type); higher = more active; in vitro selection; Mg2+ level not given
Procedure, shortened: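 An in vitro group I ribozyme library with randomized positions was T7-transcribed and gel-purified. In triplicate, 10 pmol RNA in EPPS pH 7.5 was reacted with 50 pmoles of a 30-nt RNA substrate for 1 h at 37 °C across several added MgCl2 levels (1–48 mM), then stopped with EDTA. Products were reverse transcribed from a substrate-complementary primer, PCR-amplified and sequenced (HiSeq 4000). Fitness is a variant's read proportion after selection over that before, normalised to wild type.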

Variant | reverse-splicing fitness
C82G A111U A120G A145U C150U U176A | 0.0118
C82G A111U A120G A145U C150U U176C | 0.0175
C82G A111U A120G A145U C150U U176G | 0.00663
C82G A111U A120G A145U C169A | 0.00825
C82G A111U A120G A145U C169A U176A | 0.0133
C82G A111U A120G A145U C169A U176C | 0.0135
C82G A111U A120G A145U C169A U176G | 0.00445
C82G A111U A120G A145U C169G | 0.0137
C82G A111U A120G A145U C169G U176A | 0.0119
C82G A111U A120G A145U C169G U176C | 0.0162
C82G A111U A120G A145U C169G U176G | 0.00405
C82G A111U A120G A145U C169U | 0.01
C82G A111U A120G A145U C169U U176A | 0.0185
C82G A111U A120G A145U C169U U176C | 0.0158
C82G A111U A120G A145U C169U U176G | 0.00419
C82G A111U A120G A145U U176A | 0.0138
C82G A111U A120G A145U U176C | 0.0193
C82G A111U A120G A145U U176G | 0.00635
C82G A111U A120G C150A | 0.00998
C82G A111U A120G C150A C169A | 0.0117
C82G A111U A120G C150A C169A U176A | 0.0207

Variant | reverse-splicing fitness
C82G A111U A120G C150A C169A U176C | 0.0211
C82G A111U A120G C150A C169A U176G | 0.00601
C82G A111U A120G C150A C169G | 0.0106
C82G A111U A120G C150A C169G U176A | 0.0227
C82G A111U A120G C150A C169G U176C | 0.0245
C82G A111U A120G C150A C169G U176G | 0.00607
C82G A111U A120G C150A C169U | 0.00827
C82G A111U A120G C150A C169U U176A | 0.0244
C82G A111U A120G C150A C169U U176C | 0.0215
C82G A111U A120G C150A C169U U176G | 0.00759
C82G A111U A120G C150A U176A | 0.0143
C82G A111U A120G C150A U176C | 0.0195
C82G A111U A120G C150A U176G | 0.0103
C82G A111U A120G C150G | 0.00634
C82G A111U A120G C150G C169A | 0.00883
C82G A111U A120G C150G C169A U176A | 0.0115
C82G A111U A120G C150G C169A U176C | 0.0111
C82G A111U A120G C150G C169A U176G | 0.00726
C82G A111U A120G C150G C169G | 0.00797
C82G A111U A120G C150G C169G U176A | 0.0069
C82G A111U A120G C150G C169G U176C | 0.00484

Variant | reverse-splicing fitness
C82G A111U A120G C150G C169G U176G | 0.00471
C82G A111U A120G C150G C169U | 0.00861
C82G A111U A120G C150G C169U U176A | 0.00893
C82G A111U A120G C150G C169U U176C | 0.0123
C82G A111U A120G C150G C169U U176G | 0.00592
C82G A111U A120G C150G U176A | 0.00658
C82G A111U A120G C150G U176C | 0.0117
C82G A111U A120G C150G U176G | 0.00354
C82G A111U A120G C150U | 0.0127
C82G A111U A120G C150U C169A | 0.0112
C82G A111U A120G C150U C169A U176A | 0.0173
C82G A111U A120G C150U C169A U176C | 0.0182
C82G A111U A120G C150U C169A U176G | 0.00614
C82G A111U A120G C150U C169G | 0.0112
C82G A111U A120G C150U C169G U176A | 0.0168
C82G A111U A120G C150U C169G U176C | 0.0205
C82G A111U A120G C150U C169G U176G | 0.0053
C82G A111U A120G C150U C169U | 0.0101
C82G A111U A120G C150U C169U U176A | 0.0199
C82G A111U A120G C150U C169U U176C | 0.0168
C82G A111U A120G C150U C169U U176G | 0.00743

Variant | reverse-splicing fitness
C82G A111U A120G C150U U176A | 0.0111
C82G A111U A120G C150U U176C | 0.0178
C82G A111U A120G C150U U176G | 0.011
C82G A111U A120G C169A | 0.00993
C82G A111U A120G C169A U176A | 0.017
C82G A111U A120G C169A U176C | 0.0215
C82G A111U A120G C169A U176G | 0.00437
C82G A111U A120G C169G | 0.014
C82G A111U A120G C169G U176A | 0.0187
C82G A111U A120G C169G U176C | 0.0225
C82G A111U A120G C169G U176G | 0.00448
C82G A111U A120G C169U | 0.0106
C82G A111U A120G C169U U176A | 0.0197
C82G A111U A120G C169U U176C | 0.0179
C82G A111U A120G C169U U176G | 0.00589
C82G A111U A120G U176A | 0.0148
C82G A111U A120G U176C | 0.0216
C82G A111U A120G U176G | 0.00905
C82G A111U A120U | 0.0462
C82G A111U A120U A145C | 0.0386
C82G A111U A120U A145C C150A | 0.00458

— the RNAGym collection of RNA variant scans (doi:10.1093/molbev/msab373)
